The target of assay [1] is D3H44 light chain Q124E_Q160E_T180E, N-terminal HA or FLAG tag. Briefly: LCCA, L1:L2 DNA 1:3, SPR of light chain tags; competing light chain m16.
For assay [2], the target named is D3H44 light chain Q124R_Q160K_T178R, N-terminal HA or FLAG tag. Briefly: LCCA, L1:L2 DNA 1:3, SPR of light chain tags; competing light chain m13.
The target in assay [3] is D3H44 light chain T178R, N-terminal HA or FLAG tag. The assay is described as above.
Assay [4] has as its target D3H44 light chain Q124K_T178R, N-terminal HA or FLAG tag. The description is as above.
Assay [5] has as its target D3H44 light chain Q124E_T180E, N-terminal HA or FLAG tag. The assay can be described thus: LCCA, L1:L2 DNA 1:3, SPR of light chain tags; competing light chain m15.
The target in assay [6] is D3H44 light chain Q124R_T178K, N-terminal HA or FLAG tag. The assay can be described thus: LCCA, L1:L2 DNA 1:3, SPR of light chain tags; competing light chain m11.
For assay [7], the target named is D3H44 light chain Q124R_T178R, N-terminal HA or FLAG tag. The description is as above.
Assay [8] shares this target. Briefly: LCCA, L1:L2 DNA 1:9, SPR of light chain tags; competing light chain m11.
Assay [9] has as its target D3H44 light chain Q124E_T180E, N-terminal HA or FLAG tag. The assay can be described thus: LCCA, L1:L2 DNA 1:3, SPR of light chain tags; competing light chain m14.
The target of assay [10] is D3H44 light chain Q124E_Q160E_T180E, N-terminal HA or FLAG tag. Briefly: LCCA, L1:L2 DNA 1:3, SPR of light chain tags; competing light chain m12.
The target is the same in assay [11]. Briefly: LCCA, L1:L2 DNA 1:9, SPR of light chain tags; competing light chain m12.
Assay [12] addresses D3H44 light chain Q124E_T180E, N-terminal HA or FLAG tag. The assay can be described thus: LCCA, L1:L2 DNA 1:3, SPR of light chain tags; competing light chain m10.
Assay [13] has as its target D3H44 light chain Q124R_Q160K_T178R, N-terminal HA or FLAG tag. The assay can be described thus: LCCA, L1:L2 DNA 1:3, SPR of light chain tags; competing light chain m18.
For assay [14], the target named is D3H44 light chain Q124R_T178R, N-terminal HA or FLAG tag. The assay can be described thus: LCCA, L1:L2 DNA 1:3, SPR of light chain tags; competing light chain m19.
For assay [15], the target named is D3H44 light chain Q124E_V133E, N-terminal HA or FLAG tag. The assay can be described thus: LCCA, L1:L2 DNA 1:9, SPR of light chain tags; competing light chain m14.
Assay [16] shares this target. The assay can be described thus: LCCA, L1:L2 DNA 1:3, SPR of light chain tags; competing light chain m14.
Assay [17] deals with D3H44 light chain Q124R_T178R, N-terminal HA or FLAG tag. Briefly: LCCA, L1:L2 DNA 1:9, SPR of light chain tags; competing light chain m19.
For assay [18], the target named is D3H44 light chain Q124E_S176L_T180E, N-terminal HA or FLAG tag. The assay can be described thus: LCCA, L1:L2 DNA 1:3, SPR of light chain tags; competing light chain m12.
For assay [19] the target is unchanged. Briefly: LCCA, L1:L2 DNA 1:9, SPR of light chain tags; competing light chain m12.
Assay [20] has as its target D3H44 light chain Q124R_Q160K_T178R, N-terminal HA or FLAG tag. Briefly: LCCA, L1:L2 DNA 1:9, SPR of light chain tags; competing light chain m18.
Assay [21] has as its target D3H44 light chain Q124R_T178R, N-terminal HA or FLAG tag. The assay can be described thus: LCCA, L1:L2 DNA 1:3, SPR of light chain tags; competing light chain m13.
Assay [22] addresses D3H44 light chain Q124E_Q160E_T180E, N-terminal HA or FLAG tag. The assay can be described thus: LCCA, L1:L2 DNA 1:3, SPR of light chain tags; competing light chain m15.
Assay [23] has the same target. Briefly: LCCA, L1:L2 DNA 1:9, SPR of light chain tags; competing light chain m15.
The target of assay [24] is D3H44 light chain Q124K_T178R, N-terminal HA or FLAG tag. Briefly: LCCA, L1:L2 DNA 1:3, SPR of light chain tags; competing light chain m11.
Assay [25] deals with D3H44 light chain Q124R_T178K, N-terminal HA or FLAG tag. Briefly: LCCA, L1:L2 DNA 1:9, SPR of light chain tags; competing light chain m11.
Assay [26] deals with D3H44 light chain Q124K_T178R, N-terminal HA or FLAG tag. The description is as above.
Assay [27] concerns the target D3H44 light chain Q124E_T180E, N-terminal HA or FLAG tag. The assay can be described thus: LCCA, L1:L2 DNA 1:3, SPR of light chain tags; competing light chain m12.
Assay [28] has as its target D3H44 light chain Q124E_Q160E_T180E, N-terminal HA or FLAG tag. Briefly: LCCA, L1:L2 DNA 1:9, SPR of light chain tags; competing light chain m16.
For assay [29], the target named is D3H44 light chain Q124R, N-terminal HA or FLAG tag. Briefly: LCCA, L1:L2 DNA 1:3, SPR of light chain tags; competing light chain m18.
For assay [30], the target named is D3H44 light chain Q124E_V133E, N-terminal HA or FLAG tag. The assay can be described thus: LCCA, L1:L2 DNA 1:9, SPR of light chain tags; competing light chain m17.
Assay [31] addresses D3H44 light chain Q124R, N-terminal HA or FLAG tag. The assay can be described thus: LCCA, L1:L2 DNA 1:9, SPR of light chain tags; competing light chain m18.
Assay [32] deals with D3H44 light chain Q124E_V133E, N-terminal HA or FLAG tag. Briefly: LCCA, L1:L2 DNA 1:3, SPR of light chain tags; competing light chain m17.
Assay [33] addresses D3H44 light chain T178R, N-terminal HA or FLAG tag. Briefly: LCCA, L1:L2 DNA 1:3, SPR of light chain tags; competing light chain m11.
The target is the same in assay [34]. Briefly: LCCA, L1:L2 DNA 1:9, SPR of light chain tags; competing light chain m11.
Assay [35] deals with D3H44 light chain Q124E_Q160E_T180E, N-terminal HA or FLAG tag. Briefly: LCCA, L1:L2 DNA 1:3, SPR of light chain tags; competing light chain m10.
For assay [36] the target is unchanged. The assay can be described thus: LCCA, L1:L2 DNA 1:9, SPR of light chain tags; competing light chain m10.

Values joined by “and” are separate entries in the source; they are usually repeats but may differ in a detail not shown here. Identical values can stand only once.

Turning to “D3H44 Fab heavy chain L143E_K145T_Q179E, C-terminal ABD2-His6 tag”, the H1L1:H1L2 normalized median ratio is 17 share of 100 in assay [1]; 73 share of 100 in assay [2]; 60 share of 100 in [3]; 70 share of 100 in assay [4]; 30 share of 100 in assay [5]; 83 share of 100 and 33 share of 100 in assay [6]. The H1L1:H1L2 normalized median ratio in assay [7] was 91 share of 100; in [8], 78 share of 100; in assay [9], 27 share of 100; in assay [10], 9 share of 100; in assay [11] it was 22 share of 100; in assay [12] it was 40 share of 100. The H1L1:H1L2 normalized median scalar value ln(r1/f1) in assay [2] amounted to 1; in assay [3] it was 0.41; in assay [4], 0.84; in assay [6] it was 1.62; in assay [7] it was 2.27; in assay [8], 1.29.

“D3H44 Fab heavy chain L143E_K145T_Q179E_S188L, C-terminal ABD2-His6 tag”: the H1L1:H1L2 normalized median ratio is 89 share of 100 in assay [13]; 87 share of 100 in [14]; 13 share of 100 in assay [15]; 11 share of 100 in assay [16]; 90 share of 100 in assay [17]; 13 share of 100 in assay [18]. Besides, the results for the H1L1:H1L2 normalized median ratio in assay [19] and in assay [20] were 10 share of 100 and 87 share of 100, respectively. The H1L1:H1L2 normalized median scalar value ln(r1/f1) in [13] amounted to 2.06; in assay [14], 1.9; in assay [17] it was 2.25; in [20], 1.86.

Turning to “D3H44 Fab heavy chain Q179K, C-terminal ABD2-His6 tag”, the H2L2:H2L1 normalized median ratio was 89 share of 100 in assay [1]; 4 share of 100 in assay [2]; 4 share of 100 in assay [3]; 4 share of 100 in [21]; 4 share of 100 in [4]; 96 share of 100 in assay [5]. For the same substance, the H2L2:H2L1 normalized median ratio in assay [22] is 92 share of 100; in [23] it was 90 share of 100; in assay [14], 4 share of 100; in assay [6], 11 share of 100; in [7], 12 share of 100; in assay [24] it was 8 share of 100. Also, the H2L2:H2L1 normalized median ratio in assay [25] was 7 share of 100; in [8], 10 share of 100; in assay [26] it was 10 share of 100; in assay [9], 96 share of 100; in assay [27] it was 96 share of 100; in assay [10] it was 88 share of 100. The H2L2:H2L1 normalized median ratio in [18] is 96 share of 100; in assay [11], 90 share of 100; in [12], 96 share of 100; in [28] it was 93 share of 100.

For “D3H44 Fab heavy chain L143R, C-terminal ABD2-His6 tag”, the H2L2:H2L1 normalized median ratio in assay [13] was 4 share of 100; in [29] it was 4 share of 100; in [15], 93 share of 100; in assay [16] it was 96 share of 100; in assay [30], 74 share of 100; in assay [20], 7 share of 100. Further, the H2L2:H2L1 normalized median ratio is 26 share of 100 in [31] and 96 share of 100 in assay [32].

For the substance “D3H44 Fab heavy chain L143D_K145T_Q179E, C-terminal ABD2-His6 tag”, the H1L1:H1L2 normalized median ratio in assay [33] is 89 share of 100; in assay [34] it was 89 share of 100; in assay [35], 11 share of 100; in assay [36], 11 share of 100. The H1L1:H1L2 normalized median scalar value ln(r1/f1) in assay [33] is 2.1; in assay [34] it was 2.09.

As to “D3H44 Fab heavy chain L143E_K145T_Q179D, C-terminal ABD2-His6 tag”, the H1L1:H1L2 normalized median ratio in [1] is 11 share of 100; in assay [2] it was 69 share of 100; in assay [3], 65 share of 100; in assay [21], 76 share of 100; in assay [22] it was 14 share of 100; in assay [23], 14 share of 100. Also, the H1L1:H1L2 normalized median ratio in assay [6] is 89 share of 100; in [7], 87 share of 100; in assay [24] it was 86 share of 100; in assay [25] it was 78 share of 100; in assay [8], 82 share of 100; in assay [26] it was 86 share of 100. Moreover, the H1L1:H1L2 normalized median ratio was 31 share of 100 in [9]; 24 share of 100 in assay [27]; 13 share of 100 in [10]; 18 share of 100 in [11]; 35 share of 100 in [12]; 22 share of 100 in [28]. Moreover, the H1L1:H1L2 normalized median scalar value ln(r1/f1) in [2] is 0.79; in [3] it was 0.64; in [21] it was 1.14; in assay [6] it was 2.08 and 2.03; in assay [7], 1.9; in [24] it was 1.78. The H1L1:H1L2 normalized median scalar value ln(r1/f1) came to 1.28 in assay [25], 1.55 in assay [8] and 1.84 in [26].

These data come from US11306156.
